According to paper doi:10.1101/2025.08.11.669711:

Target: UCH37•RPN13 (UniProt Q16186)
Assay: steady-state enzyme inhibition kinetics; cleavage of K6/K48 tri-Ub by UCH37•RPN13 (0.5 μM) with varied Nb-ncS1; 50 mM HEPES pH 7.5, 50 mM NaCl, 1 mM DTT; 37 °C; competitive inhibition fit

Chain of UCH37•RPN13 (Q16186 whole entry, looked up): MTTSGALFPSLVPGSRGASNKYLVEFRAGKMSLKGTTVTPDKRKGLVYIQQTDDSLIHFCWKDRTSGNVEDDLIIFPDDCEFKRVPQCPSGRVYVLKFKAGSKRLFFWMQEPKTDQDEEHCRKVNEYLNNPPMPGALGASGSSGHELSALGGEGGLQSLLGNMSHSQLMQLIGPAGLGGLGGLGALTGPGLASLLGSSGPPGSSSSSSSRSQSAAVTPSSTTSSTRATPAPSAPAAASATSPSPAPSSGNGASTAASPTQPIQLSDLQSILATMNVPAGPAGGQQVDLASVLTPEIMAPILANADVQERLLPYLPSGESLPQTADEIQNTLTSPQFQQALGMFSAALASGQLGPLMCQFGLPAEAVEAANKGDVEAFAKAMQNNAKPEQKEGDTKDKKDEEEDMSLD

B1: Nb-ncS1 (His-tagged) (VHH)
VHH: RVQLQESGGGLVQAGGSLRLSCAASGYIFRSYRMGWYRQAPGKERELVAAIGLGGNTYYADSVKGRFTISRDNAKNTVYQQMNSLKPEDTAVYYCAALYGKPPAFSPFPYWGQGTQVTVSS
B1 gave a Ki of 0.12 µM.
